Assay results reported in US20040253577A1 (SCHERING, published 2004).

Biological target: the molecule itself
Assay: size exclusion chromatography (Superdex 75), self-association

B1: HCV NS3 helicase subdomain I (181-324,R257E) mutant (enzyme)
chain: SPVFTDNSSPPAVPQSFQVAHLHAPTGSGKSTKVPAAYAAQGYKVLVLNPSVAATLGFGAYMSKAHGVDPNIRTGVETITTGSPITYSTYGKFLADGGCSGGAYDIIICDECHSTDATSILGIGTVLDQAETAGARLVVLATAT
notes: also called subdomain I mutant; product of pNS3(181-324,R257E)
  binding result: no binding (tested: 6 mg/ml)
